Source: patent US12173057B2, “Antibodies and therapeutic uses thereof” (Ibex Biosciences, Inc., priority 2018, dated 2024)
Residue numbers refer to the chain shown, from its start. “Also recorded” adds a separate entry of the source.

Assays:
[1] = test system: MDA-MB-231 cells; assay: ORIS cell migration (motility) assay; type: cell-based, human
Experimental: Cell motility assays utilized the Platypus Technologies ORIS™ cell migration assay platform, which is generally described at platypustech.com/discoverAssay.html.
Specifically, the filamin-A antibodies of the present disclosure were evaluated in the ORIS™ cell migration assay, which used tri-coated 96 well plates (Platypus #CMATR1.101). Cells were seeded at approximately 50,000 cells/well. Cells were incubated overnight at 37° C. without CO2 in DMEM, in the case of HEK-293 cells, or L-15 containing 10% FBS, in the case of MDA-MB-231 cells. Stoppers covering cell growth chambers were removed with the ORIS™ stopper tool, growth media was removed, and wells were gently washed with 100 microliters of sterile PBS. Stoppers were left in place in reference wells until the staining step to serve as pre-migration controls. After washing, a 100 microliter volume of fresh culture media containing the specific treatment was added to each well. The cells were then allowed to incubate overnight. At the end of the incubation period, cells were fluorescently stained with Calcein AM for 30 minutes. Fluorescence was then measured using a microplate reader with a Detection Mask in place.
FIGS. 1 and 2 depict the relative fluorescence units (RFUs) present in the detection zones for each condition (mean+/−S.D., n=2 wells/condition).
Wells containing the cells existed in three formats: coated with collagen, coated with fibronectin, or a tissue culture (TC) treatment.
Well treatments were as follows: no antibody control, mouse antibody (mAb FLNA 1 mcg/ml), mouse antibody (mAb FLNA 20 mcg/ml), human chimeric antibody (hAb FLNA 1 mcg/ml), human chimeric antibody (hAb FLNA 20 mcg/ml), apicdin (100 nM), cytochalasin B (30 micromolar); see FIG. 1. An increase in the number of RFUs correlates with an increase in cellular motility.

[2] = test system: filamin-A; assay: Immunofluorescence assays with MDA-MB-231 breast cancer cell line; type: cell-based, human
Experimental: Characterization of the filamin-A mAbs was performed using immunofluorescence assays with the MDA-MB-231 breast cancer cell line. […] For comparison, the AHO1402 mAb and another commercially available mAb, TI10 (Millipore MAB1680-C), were assayed at the same time.
The primary antibodies utilized in the immunofluorescence assays were as follows: • Anti-Filamin-A, clone TI10 (Millipore, p/n MAB1680-C) • Anti-Filamin-A, clone 209 #13 (Life Technologies, p/n AHO1402) • Anti-Filamin-A, mouse mAb • Anti-Filamin-A, human chimeric mAb • Anti-beta Actin, rabbit polyclonal (Rockland, p/n 600-401-886S)
Two primary methods of Immunofluorescence staining were utilized. The first method comprises single staining or double staining with methanol as a fixative and 0.2% Triton as a permeabilization agent, which is described in Alper et al. 2009. The second method utilizes a double staining technique with 2% paraformaldehyde as a fixative and 0.2% triton as a permeabilization agent.
Primary antibodies were incubated with the fixed and permeabilized cells for 1 hour at room temperature at a concentration of 1.25 mcg/ml. After one or more wash steps, secondary antibodies were incubated with the cells for 1 hour at room temperature. […]

[3] = test system: MDA-MB-231 breast cancer cells; assay: ORIS cell migration assay with Calcein AM / propidium iodide / Hoechst 33342 staining; type: cell-based, human; conditions: overnight incubation with antibody versus buffer control
Experimental: Additional cell assays were carried out using the B411 antibody and the breast cancer cell lines MDA-MB-231 and SKBR3. Specifically, the filamin-A antibody B411 was evaluated in the ORIS™ cell migration assay, which used tri-coated 96 well plates (Platypus #CMATR1.101). Cells were seeded at approximately 25,000 or 50,000 cells/well. Cells were incubated overnight at 37° C., CO2, McCoy's in the case of SKBR3 cells, or L-15 containing 10% FBS, without CO2 in the case of MDA-MB-231 cells. Stoppers covering cell growth and migration zones were removed with the ORIS™ stopper tool, growth media was removed, and wells gently washed with 100 microliters of sterile PBS. Stoppers were left in place in reference wells until the staining step to serve as no-migration controls. After washing, a 100 microliter volume of fresh culture media containing the specific treatment was added to each well. The cells were then allowed to incubate overnight. At the end of the incubation period, cells were fluorescently stained as follows: • Carefully remove remaining culture medium from wells and wash with 100 μL of PBS. […] Fluorescence was then measured using a microplate reader with a Detection Mask in place. • Carefully remove Calcein AM and wash with 100 μL of PBS. […] Incubate 5-10 min at room temperature. • Take a fluorescence image (blue, green and red channels) of a representative well(s) using 5× magnification.

[4] = target: T1, surface filamin A on SKBR3 (breast adenocarcinoma) cell line (Homo sapiens, UniProt P21333); assay: B411 surface staining by flow cytometry; type: binding; conditions: 2 μg primary antibody, 1 hour on ice
T1 construct: endogenous in cells; host or cells: SKBR3
Experimental: (§1) B411 surface staining on several different cell types was conducted. Cells were plated at a concentration of 0.5-1.0 million cells per well, and incubated overnight. Cells were then lifted from the wells, washed, and resuspended in flow cytometry media with 2 μg of primary antibody for 1 hour on ice. Cells were washed and incubated with the secondary antibody (5 μg/ml) for 30 minutes on ice. Cells were washed again and analyzed by flow cytometry.

[5] = target: T2, surface filamin A on HeLa cells (Homo sapiens, UniProt P21333); assay: B411 surface staining by flow cytometry; type: binding; conditions: 2 μg primary antibody, 1 hour on ice
T2 construct: endogenous in cells; host or cells: HeLa
Experimental: as §1

[6] = target: T3, surface filamin A on SKNAS (human neuroblastoma) cell line (Homo sapiens, UniProt P21333); assay: B411 surface staining by flow cytometry; type: binding; conditions: 2 μg primary antibody, 1 hour on ice
T3 construct: endogenous in cells; host or cells: SKNAS
Experimental: as §1

[7] = target: T4, surface filamin A on SKOV3 cell line (ovarian cancer) (Homo sapiens, UniProt P21333); assay: B411 surface staining by flow cytometry; type: binding; conditions: 2 μg primary antibody, 1 hour on ice
T4 construct: endogenous in cells; host or cells: SKOV3
Experimental: as §1

[8] = test system: DU145 (human prostate cancer cell line); assay: CellCountzEZ Cell Survival Assay; type: cell-based; conditions: for ratio of inhibition: dose not restated in b354 (10 μg)
Experimental: (§2) A study was conducted to assess cell survival following incubation with antibody B411. DU145 (human prostate cancer cell line) and HEK293A (human embryonic kidney cell line) cells were seeded on 96-well plates (10^4 cells/well) and incubated for 4 hours at 37° C. 1 μg or 10 μg B411 (endotoxin removed, 1.2 EU/mL) was added to the wells and incubated for 24 or 48 hours. An untreated group for both cell types was also included. Cell survival was detected using CellCountzEZ™ Cell Survival Assay kit and results were determined by reading OD412 with a reference to OD650.

[9] = test system: HEK293A (human embryonic kidney cell line); assay: CellCountzEZ Cell Survival Assay; type: cell-based; conditions: for ratio of inhibition: dose not restated in b354 (10 μg)
Experimental: as §2

[10] = test system: SKBR3 cells (breast adenocarcinoma); assay: Endocytosis assay (Zenon pHrodo labelled antibody, flow cytometry); type: cell-based, human; conditions: 12 μg/mL labelled antibody; 24 hours, 37° C.
Experimental: Experiments were conducted to determine if antibody B411 is endocytosed by cells. 250,000 cells/well were plated and incubated overnight at 37° C., 5% CO2. 12 μg/mL of antibodies were labelled with Zenon pHrodo kit (human green) according to the manufacturer's protocol for 5 minutes at room temperature, in the dark. The plated cells were then incubated with the labeled antibodies for 24 hours, at 37° C., 5% CO2. Cells were then lifted by manual scraping, and washed prior to analysis by flow cytometry.

T1 sequence (P21333 whole entry): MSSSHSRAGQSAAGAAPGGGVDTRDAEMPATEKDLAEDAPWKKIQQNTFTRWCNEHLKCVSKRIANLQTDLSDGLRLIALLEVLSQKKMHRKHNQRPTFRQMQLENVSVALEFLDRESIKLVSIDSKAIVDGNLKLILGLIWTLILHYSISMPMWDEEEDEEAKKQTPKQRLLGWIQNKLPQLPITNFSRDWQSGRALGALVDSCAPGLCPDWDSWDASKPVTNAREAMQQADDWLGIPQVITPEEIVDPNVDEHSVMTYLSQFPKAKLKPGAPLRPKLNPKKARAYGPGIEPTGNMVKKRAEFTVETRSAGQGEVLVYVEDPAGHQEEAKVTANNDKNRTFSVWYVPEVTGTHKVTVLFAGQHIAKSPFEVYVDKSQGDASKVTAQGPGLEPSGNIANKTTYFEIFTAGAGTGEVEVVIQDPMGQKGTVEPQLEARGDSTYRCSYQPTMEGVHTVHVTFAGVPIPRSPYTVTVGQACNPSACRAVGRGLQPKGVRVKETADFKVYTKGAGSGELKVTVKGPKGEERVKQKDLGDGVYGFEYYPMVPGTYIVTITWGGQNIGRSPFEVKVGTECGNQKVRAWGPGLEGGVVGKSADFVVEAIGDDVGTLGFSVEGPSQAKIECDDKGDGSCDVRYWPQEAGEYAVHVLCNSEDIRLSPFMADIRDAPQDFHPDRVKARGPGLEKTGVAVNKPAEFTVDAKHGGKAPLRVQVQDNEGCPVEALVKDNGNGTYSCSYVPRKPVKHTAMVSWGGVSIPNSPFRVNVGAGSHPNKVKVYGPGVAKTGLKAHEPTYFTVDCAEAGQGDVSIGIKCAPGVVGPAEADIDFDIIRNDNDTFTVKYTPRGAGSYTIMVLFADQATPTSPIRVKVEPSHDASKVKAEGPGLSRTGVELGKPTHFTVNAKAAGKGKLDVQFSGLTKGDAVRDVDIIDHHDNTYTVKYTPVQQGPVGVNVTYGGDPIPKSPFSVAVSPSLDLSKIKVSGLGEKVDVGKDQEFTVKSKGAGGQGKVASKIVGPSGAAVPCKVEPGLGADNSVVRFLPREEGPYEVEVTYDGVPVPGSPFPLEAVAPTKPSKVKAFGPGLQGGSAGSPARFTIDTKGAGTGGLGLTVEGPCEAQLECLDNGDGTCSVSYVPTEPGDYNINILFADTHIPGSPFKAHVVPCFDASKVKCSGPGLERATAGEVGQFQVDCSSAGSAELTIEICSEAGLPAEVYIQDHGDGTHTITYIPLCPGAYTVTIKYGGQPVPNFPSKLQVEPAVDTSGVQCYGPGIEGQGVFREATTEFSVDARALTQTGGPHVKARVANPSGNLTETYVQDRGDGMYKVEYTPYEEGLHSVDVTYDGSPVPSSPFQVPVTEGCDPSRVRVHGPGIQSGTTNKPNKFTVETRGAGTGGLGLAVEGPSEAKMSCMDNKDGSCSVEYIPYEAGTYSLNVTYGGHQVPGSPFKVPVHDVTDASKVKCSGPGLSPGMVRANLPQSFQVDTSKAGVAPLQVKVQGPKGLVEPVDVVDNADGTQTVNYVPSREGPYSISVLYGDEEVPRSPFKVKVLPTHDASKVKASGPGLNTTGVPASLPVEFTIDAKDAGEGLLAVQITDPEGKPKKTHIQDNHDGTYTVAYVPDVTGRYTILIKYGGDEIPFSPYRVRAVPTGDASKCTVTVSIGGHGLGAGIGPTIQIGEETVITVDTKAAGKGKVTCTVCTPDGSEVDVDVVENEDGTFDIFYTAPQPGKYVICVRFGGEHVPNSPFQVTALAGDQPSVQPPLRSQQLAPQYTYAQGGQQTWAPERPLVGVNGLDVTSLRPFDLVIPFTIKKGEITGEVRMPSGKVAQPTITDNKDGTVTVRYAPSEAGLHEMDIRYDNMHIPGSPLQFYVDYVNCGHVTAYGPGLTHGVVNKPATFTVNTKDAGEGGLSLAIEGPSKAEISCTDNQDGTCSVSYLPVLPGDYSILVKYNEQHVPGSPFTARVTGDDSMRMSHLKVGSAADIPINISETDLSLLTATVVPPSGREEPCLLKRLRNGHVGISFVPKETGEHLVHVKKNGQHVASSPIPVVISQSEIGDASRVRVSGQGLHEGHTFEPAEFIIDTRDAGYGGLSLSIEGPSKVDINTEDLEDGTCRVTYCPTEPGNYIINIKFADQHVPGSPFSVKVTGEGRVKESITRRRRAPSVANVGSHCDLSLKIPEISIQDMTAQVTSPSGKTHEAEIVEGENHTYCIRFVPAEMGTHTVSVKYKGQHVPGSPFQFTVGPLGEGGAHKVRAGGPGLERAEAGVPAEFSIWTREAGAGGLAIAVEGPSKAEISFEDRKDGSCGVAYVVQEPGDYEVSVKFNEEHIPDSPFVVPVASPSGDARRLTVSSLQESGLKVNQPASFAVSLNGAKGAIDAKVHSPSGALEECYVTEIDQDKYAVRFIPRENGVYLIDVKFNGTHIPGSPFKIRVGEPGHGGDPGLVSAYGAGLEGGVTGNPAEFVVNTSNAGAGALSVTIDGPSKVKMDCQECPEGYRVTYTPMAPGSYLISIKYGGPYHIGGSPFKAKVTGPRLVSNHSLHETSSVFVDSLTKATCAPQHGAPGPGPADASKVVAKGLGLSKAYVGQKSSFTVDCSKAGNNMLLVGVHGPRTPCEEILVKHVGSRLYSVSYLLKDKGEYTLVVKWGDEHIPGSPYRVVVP
T2 sequence (P21333 whole entry): as above
T4 sequence (P21333 whole entry): as above
T3 sequence (P21333 whole entry): as above

C=C1[C@@H](C)[C@H]2[C@H](Cc3ccccc3)NC(=O)[C@]23OC(=O)/C=C/[C@H](O)CCC[C@@H](C)C/C=C/[C@H]3[C@@H]1O [cytochalasin B, reference compound]
effect on cell migration ([1]; tissue culture (TC) treatment wells, no coating): little effect across treatments with the exception of cytochalasin B

B1: murine antibody: recombinant mouse anti-filamin-A mAb of the disclosure (mouse antibody B186); mouse VL SEQ ID NO:22, VH SEQ ID NO:24 (antibody, listed as Mus sp., V domains shown)
VH: EVKLVESGGGLVQPGGSLKLSCAASGFTFSSYTMSWVRQTPEKRLEWVAYISNGGGSTYYPDTVKGRFTISRDNAKNTLYLQMSSLKSEDTAMYYCASDGLLRPFAYWGQGTLVTVSA
VL: DIVMTQSHKFMSTSVGDRVSITCKASQDVSIDVAWYQQKPGQSPKLLIYSASHRYTGVPDRFTGSGSGTDFTFTISGVQAEDLAVYFCQQHYSTPLTFGAGTKLELK
effect on cell motility ([1]; collagen coated wells): no considerable differences | effect on cell migration ([1]; collagen treated wells, 1 μg/mL): did not lead to a reduction in cell migration | effect on cell motility / cell migration ([1]; fibronectin coated wells, 1 μg/mL): decreases in cell motility | effect on cell motility / cell migration ([1]; fibronectin coated wells, 1 μg/mL, listed as murine mAbs): less of a reduction | cell motility (relative fluorescence units in detection zone) ([1]; fibronectin coated wells, antibody 1 μg/mL, overnight incubation): 191.34 RFU | immunofluorescence staining pattern ([2]; MDA-MB-231 cells, primary antibody 1.25 mcg/ml): punctate staining pattern | immunofluorescence staining pattern ([2]; first method: methanol fixative, 0.2% Triton permeabilization): reproduced the punctuate staining pattern

B2: B411: anti-filamin-A human chimeric antibody, light chain variable region SEQ ID NO:2, heavy chain variable region SEQ ID NO:7 (antibody, V domains shown)
VH: B1 VH with L101I, L102I
VL: B1 VL with I31L
modifications: VH domain of mAbs B407 and B411; human chimeric mAb VL domain of mAbs B408, B409, B410, and B411
Calcein AM staining (metabolic activity) [3]: more variability in Calcein AM staining | Hoechst 33342 staining (apoptosis-like phenotype) [3]: increase in Hoechst 33342 staining | surface staining [4]: some positive staining; also recorded: weaker compared to the other cell lines tested | surface staining [5]: Highly Positive staining | surface staining [6]: Highly Positive staining | surface staining [7]: Highly Positive staining | inhibition effect on proliferation versus untreated group ([8]; 1 μg dosing, 24 h): significant inhibition effect on proliferation | inhibition effect on proliferation versus untreated group ([8]; 1 μg dosing, 48 h): no statistically significant effect | cell proliferation (OD412 with reference to OD650) ([8]; 1 μg or 10 μg, 24 or 48 hours, overall statement): inhibits DU145 (cancer) cell proliferation | inhibition effect on proliferation versus untreated group ([8]; 10 μg dosing, 24 h and 48 h): significant inhibition effects on proliferation | ratio of inhibition ([8]; 24 h): 7.8% | ratio of inhibition ([8]; 48 h): 14.6% | effect on cell proliferation ([9]; 1 μg dose, 24 h or 48 h): did not have an effect | inhibition of cell proliferation ([9]; 10 μg): Inhibition of HEK293 cell proliferation was also observed | ratio of inhibition ([9]; 24 h): 9.3% | ratio of inhibition ([9]; 48 h): 17.7% | endocytosis of antibody [10]: detected | number of cells positive for endocytosis, SKBR3 compared to HEK (non-cancer) cells [10]: More SKBR3 cells were positive for B411 than HEK cells
